# From US20250382384A1
# Columns and labels:
# [1] = biological target: MUC1 on normal activated human T cells (human) (UniProt P15941); test: FACS on PHA-L-activated human PBMC, live αβTCR+ cells, donor 190980805C
# [2] = biological target: MUC1 on normal activated human T cells (human) (UniProt P15941); test: FACS on PHA-L-activated human PBMC, live αβTCR+ cells, donor 3011029
# [3] = biological target: MUC1 on normal activated human T cells (human) (UniProt P15941); test: FACS on PHA-L-activated human PBMC, live αβTCR+ cells; gating scheme, donor not given
# [4] = biological target: MUC1 on normal activated human T cells (human) (UniProt P15941); test: FACS on PHA-L-activated human PBMC, live αβTCR+ cells, donor 191180405C
# [5] = biological target: MUC1 on normal activated human T cells (human) (UniProt P15941); test: FACS on PHA-L-activated human PBMC, live αβTCR+ cells, donor 3009223
# Chain of MUC1 on normal activated human T cells (human) (P15941 24-1255): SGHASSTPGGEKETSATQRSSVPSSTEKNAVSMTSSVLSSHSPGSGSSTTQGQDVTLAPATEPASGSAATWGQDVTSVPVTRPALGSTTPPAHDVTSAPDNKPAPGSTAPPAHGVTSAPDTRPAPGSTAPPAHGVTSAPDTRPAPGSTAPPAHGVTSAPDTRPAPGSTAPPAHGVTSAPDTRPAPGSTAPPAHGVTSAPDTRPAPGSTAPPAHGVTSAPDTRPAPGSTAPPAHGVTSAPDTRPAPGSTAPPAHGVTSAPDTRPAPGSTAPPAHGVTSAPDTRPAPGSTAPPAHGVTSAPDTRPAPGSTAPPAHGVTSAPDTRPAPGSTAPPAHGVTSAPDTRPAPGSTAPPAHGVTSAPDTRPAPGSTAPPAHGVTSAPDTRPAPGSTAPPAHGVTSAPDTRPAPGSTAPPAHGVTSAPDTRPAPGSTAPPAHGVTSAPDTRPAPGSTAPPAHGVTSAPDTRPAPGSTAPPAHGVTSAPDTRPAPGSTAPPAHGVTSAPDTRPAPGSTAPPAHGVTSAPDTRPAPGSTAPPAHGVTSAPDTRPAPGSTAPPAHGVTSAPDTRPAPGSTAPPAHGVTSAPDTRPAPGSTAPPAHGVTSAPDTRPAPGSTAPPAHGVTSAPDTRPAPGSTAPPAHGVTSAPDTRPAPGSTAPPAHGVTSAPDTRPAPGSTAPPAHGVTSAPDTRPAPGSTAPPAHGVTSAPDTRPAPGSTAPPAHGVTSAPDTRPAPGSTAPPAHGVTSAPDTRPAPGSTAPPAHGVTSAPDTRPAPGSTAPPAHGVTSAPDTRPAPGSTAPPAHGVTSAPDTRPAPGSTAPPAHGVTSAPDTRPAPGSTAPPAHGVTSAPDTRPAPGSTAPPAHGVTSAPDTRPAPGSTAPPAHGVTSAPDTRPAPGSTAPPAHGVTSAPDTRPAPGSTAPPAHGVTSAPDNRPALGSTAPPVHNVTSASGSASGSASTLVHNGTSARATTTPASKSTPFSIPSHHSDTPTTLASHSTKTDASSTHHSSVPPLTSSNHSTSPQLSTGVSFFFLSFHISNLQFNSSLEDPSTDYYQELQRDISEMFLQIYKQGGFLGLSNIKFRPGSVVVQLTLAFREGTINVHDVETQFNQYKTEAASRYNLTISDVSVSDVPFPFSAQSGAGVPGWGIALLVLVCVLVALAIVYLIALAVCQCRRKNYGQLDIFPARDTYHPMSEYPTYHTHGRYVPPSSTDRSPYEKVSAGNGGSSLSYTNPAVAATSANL
Substance,percent of αβTCR+ T cells in the dashed MUC1+ box (antibody-bound T cells) [1] [%],percent of αβTCR+ T cells in the dashed MUC1+ box (antibody-bound T cells) [2] [%],percent of αβTCR+ T cells in the dashed MUC1+ box (antibody-bound T cells) [3] [%],percent of αβTCR+ T cells in the dashed MUC1+ box (antibody-bound T cells) [4] [%],percent of αβTCR+ T cells in the dashed MUC1+ box (antibody-bound T cells) [5] [%]
Isotype (antibody),0.15,0.36,0.29,0.29,0.05
HMFG1 (antibody),28.2,23.2,28.1,28.1,10
